From patent US20040037843A1

Biological target: HLA-A*2401 (purified HLA class I molecule) (human)
Assay: competition with 125I-labelled probe peptide on purified HLA, gel filtration
Settings: not given

Substance | relative binding ratio (IC50 of standard peptide / IC50 of test peptide)
PAP peptide, position 183, 9 amino acids | 0.11
PAP peptide, position 309, 10 amino acids | 0.024
PAP peptide, position 297, 10 amino acids | 0.0001
PSM peptide, position 638, 9 amino acids | 0.0001
PSM peptide, position 178, 9 amino acids | 0.77

Next, values leading:

relative binding ratio (IC50 of standard peptide / IC50 of test peptide) | Substance
0.0007 | PSA peptide, position 54, 10 amino acids
0.0037 | PAP peptide, position 355, 10 amino acids
0.0001 | PAP peptide, position 163, 10 amino acids

Biological target: HLA-A*2401 (human)
Assay: competition with 125I-labelled probe peptide for purified HLA, gel filtration
Settings: not given

Substance | relative binding ratio (IC50 of standard peptide / IC50 of test peptide)
PSA position 96, 11 amino acids (peptide) | 0.12
PSM position 74, 10 amino acids (peptide) | 0.23
PSM position 668, 9 amino acids (peptide) | 0.0075

Further lines, results first:

relative binding ratio (IC50 of standard peptide / IC50 of test peptide) | Substance
0.0022 | PAP position 70, 10 amino acids (peptide)
0.44 | PSM position 227, 9 amino acids (peptide)
12 | PSM position 606, 9 amino acids (peptide)

Biological target: HLA-A*2401 (human)
Assay: as above
Settings: not given
Remark: another data set of the same source

Substance | relative binding ratio (IC50 of standard peptide / IC50 of test peptide)
PSA position 190, 9 amino acids (peptide) | 0.031
PSM position 565, 10 amino acids (peptide) | 1.1
PSM position 32, 10 amino acids (peptide) | 0.0026
PSM position 621, 9 amino acids (peptide) | 0.001
PSM position 448, 9 amino acids (peptide) | 0.019
PSM position 31, 9 amino acids (printed as 8 in Table XVIII) (peptide) | 0.019

Second part, the substance after the results:

relative binding ratio (IC50 of standard peptide / IC50 of test peptide) | Substance
0.0002 | PSM position 582, 10 amino acids (peptide)
0.0001 | PSA position 98, 9 amino acids (peptide)
0.054 | PSM position 409, 10 amino acids (peptide)
12 | PSM position 606, 9 amino acids (peptide)

Biological target: HLA-A*2401 (purified HLA class I molecule) (human)
Assay: competition with 125I-labelled standard peptide for purified HLA, gel filtration
Settings: not given

Substance | relative binding ratio (IC50 of standard peptide / IC50 of test peptide)
PSA position 96, 11 amino acids (peptide) | 0.12
PSA position 9, 9 amino acids (peptide) | 0.11
PSM position 74, 10 amino acids (peptide) | 0.23
PSM position 668, 9 amino acids (peptide) | 0.0075

Now from value to substance:

relative binding ratio (IC50 of standard peptide / IC50 of test peptide) | Substance
0.0001 | PAP position 297, 10 amino acids (peptide)
0.44 | PSM position 227, 9 amino acids (peptide)
0.0062 | PSA position 2, 10 amino acids (peptide)
0.0001 | PSM position 638, 9 amino acids (peptide)
0.36 | PSA position 9, 10 amino acids (peptide)
2.1 | PSA position 2, 9 amino acids (peptide)
0.0007 | PSA position 54, 10 amino acids (peptide)
3.2 | PSM position 624, 10 amino acids (peptide)
0.77 | PSM position 178, 9 amino acids (peptide)
0.0001 | PSA position 224, 9 amino acids (peptide)

Biological target: HLA-A*6802 (human)
Assay: as above
Settings: not given

relative binding ratio | Substance
0.0013 | PSM position 168, 10 amino acids (peptide)

Biological target: HLA-A*0206 (human)
Assay: competition with 125I-labelled standard peptide for purified HLA
Settings: not given

IC50 [nM] | Substance
502 | peptide 1419.24, PSA.166.V10

Biological target: HLA-A*6802 (human)
Assay: as above
Settings: not given

IC50 [nM] | Substance
1540 | peptide 1129.10, PSM.288
976 | peptide 1126.01, PSM.663

Biological target: HLA-A*2401 (human)
Assay: not given
Settings: not given

relative binding ratio (IC50 of standard peptide / IC50 of test peptide) | Substance
0.0007 | PSA peptide, position 91, 9 amino acids (A24 supermotif)
0.0001 | PSA peptide, position 224, 9 amino acids (A24 supermotif)

Biological target: HLA-A*0101 (purified HLA class I molecule) (human)
Assay: not given
Settings: not given

relative binding ratio (IC50 of standard peptide / IC50 of test peptide) | Substance
0.016 | PSM peptide, position 196, 10 amino acids (A1 supermotif)

Biological target: HLA-A*2401 (human)
Assay: not given
Settings: not given
Remark: another data set of the same source

relative binding ratio (IC50 of standard peptide / IC50 of test peptide) | Substance
0.054 | PSM position 409, 10 amino acids (…) (peptide)
0.031 | PSA position 190, 9 amino acids (…) (peptide)

Biological target: HLA-A*0101 (human)
Assay: not given
Settings: not given

relative binding ratio (IC50 of standard peptide / IC50 of test peptide) | Substance
0.016 | PSM peptide, position 196, 10 amino acids

Biological target: HLA-A*2401 (human)
Assay: not given
Settings: scale: ratio

Substance | relative binding ratio (A*2401)
PSA (Prostate Specific Antigen) peptide, position 9, 10 amino acids | 0.36
PSM (Prostate Specific Membrane Antigen) peptide, position 624, 10 amino acids | 3.2
PSA (Prostate Specific Antigen) peptide, position 9, 9 amino acids | 0.11

Next, values leading:

relative binding ratio (A*2401) | Substance
0.0062 | PSA (Prostate Specific Antigen) peptide, position 2, 10 amino acids
2.1 | PSA (Prostate Specific Antigen) peptide, position 2, 9 amino acids

Biological target: HLA-A*2401 (purified HLA class I molecule) (human)
Assay: not given
Settings: not given

Substance | relative binding ratio (IC50 of standard peptide / IC50 of test peptide)
PSM (prostate specific membrane antigen) peptide, position 32, 10 amino acids | 0.0026
PSM (prostate specific membrane antigen) peptide, position 582, 10 amino acids | 0.0002
PSM (prostate specific membrane antigen) peptide, position 621, 9 amino acids (from UniProt Q04609 621-629) | 0.001

Other lines, results leading:

relative binding ratio (IC50 of standard peptide / IC50 of test peptide) | Substance
0.019 | PSM (prostate specific membrane antigen) peptide, position 31, 9 amino acids
1.1 | PSM (prostate specific membrane antigen) peptide, position 565, 10 amino acids
